Target: E. coli RNAP core with βG1249D (α2, His6-tagged βG1249D, β’, ω) (E. coli) (UniProt P0A7Z4)
Experiment: cross-linking; photo-crosslinking from BpA at σ 581; σD581BpA incubated with or without AsiA 10 min at 37°C, then with core 10 min at 37°C; UV 30 min at room temperature; SDS-PAGE with Coomassie stain; crosslinked band digested with trypsin and read by MALDI-TOF; the species was seen only with AsiA present

- fold less of the σD581BpA-β’ crosslinked product than with wt core: 4 fold
Substance: AsiA/σD581BpA complex (from UniProt P00579 1-613; P32267 1-90)
